According to publication PMC12828031:

Experiments:
EGFP-vinculin = EGFP-vinculin (UniProt P18206); experiment: FRET or BRET; multiphoton TCSPC-FLIM of the donor on vinculin (EGFP or mTFP1) with mScarlet-I on RIAM as acceptor; transiently transfected MEF Vinc-/- fixed in 4% PFA; also with the ROCK inhibitor H1152 (no change)
mTFP1-vinculin = mTFP1-vinculin (UniProt P18206); experiment: as above

FRET efficiency (EGFP-vinculin) [%] | FRET efficiency (mTFP1-vinculin) [%] | Substance
13.5 |  | RIAM-mScarlet (RIAM C-terminally tagged with mScarlet-I) (from UniProt Q7Z5R6 1-666) (natural protein)
16.4 | 20 | mScarlet-RIAM (RIAM N-terminally tagged with mScarlet-I) (from UniProt Q7Z5R6 1-666) (natural protein)
